Test results taken from US20180140673A1 (Novo Nordisk, published 2018).
Like-named read-outs stand apart in the source and are kept apart here. Values belong to the binder of their own block, whether it stands above or below them.

Legend:
Test in all cases: cell-based or functional assay
[1] = molecular target: T1, FGFR1c receptor/BKL complex on differentiated mouse 3T3-L1 adipocytes (mouse, UniProt P16092 22-822; Q99N32 1-1043)
[2] = molecular target: T2, FGF receptor/BKL complex on HEK293 cells overexpressing human beta-klotho (BKL) (human, UniProt Q86Z14 1-1044)
T2 sequence (Q86Z14 whole entry, one chain of several): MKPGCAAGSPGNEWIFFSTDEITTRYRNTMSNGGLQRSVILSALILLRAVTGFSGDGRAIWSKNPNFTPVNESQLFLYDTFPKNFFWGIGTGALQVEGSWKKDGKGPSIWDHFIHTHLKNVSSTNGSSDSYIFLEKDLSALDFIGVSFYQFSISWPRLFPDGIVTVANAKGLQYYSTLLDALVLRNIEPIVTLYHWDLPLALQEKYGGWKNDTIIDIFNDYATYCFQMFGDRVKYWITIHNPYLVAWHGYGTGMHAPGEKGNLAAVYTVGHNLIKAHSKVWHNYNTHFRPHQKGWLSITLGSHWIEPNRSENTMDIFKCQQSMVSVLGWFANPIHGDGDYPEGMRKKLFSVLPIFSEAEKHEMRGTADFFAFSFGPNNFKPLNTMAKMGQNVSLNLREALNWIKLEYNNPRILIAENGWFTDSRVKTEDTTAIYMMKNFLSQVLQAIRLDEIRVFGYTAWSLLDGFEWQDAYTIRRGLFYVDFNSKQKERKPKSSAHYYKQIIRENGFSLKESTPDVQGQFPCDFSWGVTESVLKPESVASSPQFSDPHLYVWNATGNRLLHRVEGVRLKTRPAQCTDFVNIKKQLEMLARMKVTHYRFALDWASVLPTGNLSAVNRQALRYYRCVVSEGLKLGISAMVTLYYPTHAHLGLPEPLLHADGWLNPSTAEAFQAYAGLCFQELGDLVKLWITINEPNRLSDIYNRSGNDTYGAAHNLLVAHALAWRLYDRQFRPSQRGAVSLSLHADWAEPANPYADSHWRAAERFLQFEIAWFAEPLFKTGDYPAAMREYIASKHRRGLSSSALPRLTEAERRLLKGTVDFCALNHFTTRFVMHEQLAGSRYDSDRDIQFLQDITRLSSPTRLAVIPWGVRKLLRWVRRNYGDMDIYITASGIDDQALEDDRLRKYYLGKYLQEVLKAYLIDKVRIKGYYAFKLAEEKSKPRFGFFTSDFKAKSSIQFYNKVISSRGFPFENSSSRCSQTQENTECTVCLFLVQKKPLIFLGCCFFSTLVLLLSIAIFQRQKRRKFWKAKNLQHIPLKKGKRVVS

[3] = molecular target: T2, FGF receptor/BKL complex on HEK293 …; remark: listed apart in the source
[4] = molecular target: T1, FGFR1c receptor/BKL complex on …; remark: listed apart in the source
[5] = molecular target: T2, FGF receptor/BKL complex on HEK293 …; remark: listed apart in the source

T1 sequence (P16092 22-822, chain 1 of 2): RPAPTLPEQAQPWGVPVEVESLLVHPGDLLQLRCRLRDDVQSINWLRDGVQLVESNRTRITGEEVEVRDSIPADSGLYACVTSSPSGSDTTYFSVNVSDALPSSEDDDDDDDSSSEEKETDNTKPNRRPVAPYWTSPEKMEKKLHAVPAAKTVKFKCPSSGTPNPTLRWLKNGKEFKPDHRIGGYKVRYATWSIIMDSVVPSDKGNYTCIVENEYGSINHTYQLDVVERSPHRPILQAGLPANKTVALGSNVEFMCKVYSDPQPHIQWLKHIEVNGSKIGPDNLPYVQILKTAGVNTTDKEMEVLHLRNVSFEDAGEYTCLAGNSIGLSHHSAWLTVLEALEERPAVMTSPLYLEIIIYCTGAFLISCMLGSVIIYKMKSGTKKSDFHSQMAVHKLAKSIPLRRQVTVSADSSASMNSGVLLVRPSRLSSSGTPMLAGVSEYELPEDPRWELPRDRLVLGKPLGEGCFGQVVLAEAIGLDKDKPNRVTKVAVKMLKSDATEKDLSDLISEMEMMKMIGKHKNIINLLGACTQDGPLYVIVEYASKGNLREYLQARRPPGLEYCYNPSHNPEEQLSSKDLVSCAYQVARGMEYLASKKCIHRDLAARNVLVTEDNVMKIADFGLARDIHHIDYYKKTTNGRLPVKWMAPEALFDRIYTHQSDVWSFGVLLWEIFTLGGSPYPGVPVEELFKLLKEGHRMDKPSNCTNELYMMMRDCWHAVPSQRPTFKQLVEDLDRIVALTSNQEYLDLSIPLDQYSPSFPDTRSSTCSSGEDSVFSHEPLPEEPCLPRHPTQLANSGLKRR
T1 sequence (Q99N32 whole entry, chain 2 of 2): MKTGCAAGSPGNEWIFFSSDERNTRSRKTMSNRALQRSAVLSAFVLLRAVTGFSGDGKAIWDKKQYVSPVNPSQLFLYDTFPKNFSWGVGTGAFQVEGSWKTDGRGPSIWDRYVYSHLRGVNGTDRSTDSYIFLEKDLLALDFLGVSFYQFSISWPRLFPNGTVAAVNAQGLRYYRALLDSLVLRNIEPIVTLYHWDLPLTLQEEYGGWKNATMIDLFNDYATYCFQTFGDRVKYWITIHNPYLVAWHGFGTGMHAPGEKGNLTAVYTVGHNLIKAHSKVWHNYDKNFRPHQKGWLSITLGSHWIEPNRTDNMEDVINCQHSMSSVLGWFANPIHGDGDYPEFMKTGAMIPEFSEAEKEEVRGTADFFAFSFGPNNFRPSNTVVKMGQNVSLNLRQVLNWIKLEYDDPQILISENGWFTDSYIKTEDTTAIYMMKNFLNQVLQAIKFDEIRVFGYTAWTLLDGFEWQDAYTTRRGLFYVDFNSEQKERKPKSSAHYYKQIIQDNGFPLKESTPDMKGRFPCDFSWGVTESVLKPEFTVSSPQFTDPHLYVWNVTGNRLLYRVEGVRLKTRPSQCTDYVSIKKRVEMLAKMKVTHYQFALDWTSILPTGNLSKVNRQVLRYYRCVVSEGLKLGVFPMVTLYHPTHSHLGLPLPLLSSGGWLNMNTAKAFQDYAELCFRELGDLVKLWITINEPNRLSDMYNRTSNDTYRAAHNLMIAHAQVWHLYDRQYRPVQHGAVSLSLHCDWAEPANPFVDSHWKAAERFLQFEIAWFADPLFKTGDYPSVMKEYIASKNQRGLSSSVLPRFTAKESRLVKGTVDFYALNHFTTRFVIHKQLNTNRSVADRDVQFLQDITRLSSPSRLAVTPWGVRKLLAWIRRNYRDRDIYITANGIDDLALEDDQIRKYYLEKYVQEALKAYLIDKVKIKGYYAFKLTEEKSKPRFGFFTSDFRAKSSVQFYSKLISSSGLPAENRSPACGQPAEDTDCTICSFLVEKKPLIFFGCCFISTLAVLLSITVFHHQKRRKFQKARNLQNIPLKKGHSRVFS

- Glucose uptake EC50 (nM), 3T3-L1 adipocytes [1]: 1.2 nM
- EC50 (nM), pERK, HEK293/BKL cells [2]: 1.8 nM
B1: MetFGF21 (ligand)
chain: MHPIPDSSPLLQFGGQVRQRYLYTDDAQQTEAHLEIREDGTVGGAADQSPESLLQLKALKPGVIQILGVKTSRFLCQRPDGALYGSLHFDPEACSFRELLLEDGYNVYQSEAHGLPLHLPGNKSPHRDPAPRGPARFLPLPGLPPALPEPPGILAPQPPDVGSSDPLSMVGPSQGRSPSYAS

- EC50 (0.1% HSA) (nM), pERK, HEK293/BKL cells [3]: 71 nM
- EC50 (nM), pERK, HEK293/BKL cells [3]: 16 nM
- Glucose uptake EC50 (nM), 3T3-L1 adipocytes [4]: 37 nM
B2: S{Beta-181}-[2-[2-[[2-[2-[2-[[2-[2-[2-[[(4S)-4-carboxy-4-(17-carboxyheptadecanoyl-amino)butanoyl]amino]ethoxy]ethoxy]acetyl]amino]ethoxy]ethoxy]acetyl]amino]-et … (ligand)
chain: MHPIPDSSPLLQFGGQVRQRYLYTDDAQQTEAHLEIREDGTVGGAADQSPESLLQLKALKPGVIQILGVKTSRFLCQRPDGALYGSLHFDPEACSFRELLLEDGYNVYQSEAHGLPLHLPGNKSPHRDPAPRGPARFLPLPGLPPALPEPPGILAPQPPDVGSSDPLSMVGPSQGRSPSYAC
modifications: Cys181 (numbering of mature human FGF21): side chain on the sulfur atom; protractor C18 diacid; reagent of Example 4.5

- EC50 (nM), pERK, HEK293/BKL cells [5]: 8 nM
B3: Ala[Gln121,Leu168,Cys171]FGF21 (ligand)
chain: AHPIPDSSPLLQFGGQVRQRYLYTDDAQQTEAHLEIREDGTVGGAADQSPESLLQLKALKPGVIQILGVKTSRFLCQRPDGALYGSLHFDPEACSFRELLLEDGYNVYQSEAHGLPLHLPGQKSPHRDPAPRGPARFLPLPGLPPALPEPPGILAPQPPDVGSSDPLSLVGCSQGRSPSYAS
